Assay [1] addresses mouse CD5 on murine T cells (mouse) (UniProt P13379). In words: cell-based or functional assay.
For assay [2], the target named is human CD5 on human ACH2 immortalized T cells (human) (UniProt P06127). Kind of assay: cell-based or functional assay.

The source of these data is patent US20230312713A1.

Sequence of UniProt P13379 (P13379 24-494 limits assumed): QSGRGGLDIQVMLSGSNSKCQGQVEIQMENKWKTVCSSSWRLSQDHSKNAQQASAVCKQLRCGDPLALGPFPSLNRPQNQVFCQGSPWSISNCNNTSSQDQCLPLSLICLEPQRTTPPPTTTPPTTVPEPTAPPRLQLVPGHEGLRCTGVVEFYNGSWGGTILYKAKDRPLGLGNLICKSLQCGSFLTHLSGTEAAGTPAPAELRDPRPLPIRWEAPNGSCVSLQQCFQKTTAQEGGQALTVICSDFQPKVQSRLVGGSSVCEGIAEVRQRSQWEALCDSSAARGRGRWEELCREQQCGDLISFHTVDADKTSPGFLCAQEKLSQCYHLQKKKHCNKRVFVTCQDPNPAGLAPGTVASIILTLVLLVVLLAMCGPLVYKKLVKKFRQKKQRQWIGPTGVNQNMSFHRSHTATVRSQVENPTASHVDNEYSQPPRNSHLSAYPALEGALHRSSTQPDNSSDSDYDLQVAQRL
Sequence of UniProt P06127 (P06127 25-495 limits assumed): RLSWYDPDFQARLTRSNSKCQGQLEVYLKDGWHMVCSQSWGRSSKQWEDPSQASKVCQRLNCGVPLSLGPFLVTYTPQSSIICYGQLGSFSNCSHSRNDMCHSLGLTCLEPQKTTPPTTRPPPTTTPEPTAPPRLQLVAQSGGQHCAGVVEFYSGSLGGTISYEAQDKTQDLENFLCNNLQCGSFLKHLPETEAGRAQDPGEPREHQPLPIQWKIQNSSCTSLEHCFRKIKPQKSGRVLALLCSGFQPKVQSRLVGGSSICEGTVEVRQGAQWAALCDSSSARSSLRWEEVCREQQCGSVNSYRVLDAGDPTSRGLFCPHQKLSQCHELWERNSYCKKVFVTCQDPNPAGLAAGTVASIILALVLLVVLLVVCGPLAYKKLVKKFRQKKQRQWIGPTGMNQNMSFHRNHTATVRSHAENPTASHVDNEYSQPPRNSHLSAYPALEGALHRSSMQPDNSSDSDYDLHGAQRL

Consider “control isotype matched IgG conjugated to LNP-mRNA (antibody)”, for which the percent of murine T cells receiving mRNA in vitro from IgG/LNP (flow cytometry) in assay [1] worked out at 7%.

Consider “mouse anti-human CD5, clone UCHT2 (BioLegend), conjugated to LNP-mRNA (antibody)”, for which, in assay [2], the percent gene transfer (GFP) in human ACH2 T cells with CD5/LNP-GFP in vitro fell in the range of 89 to 93%.

In the case of “purified rat anti-mouse CD5, clone 53-7.3 (BioLegend), conjugated to LNP-mRNA (antibody)”, in assay [1], the ZsGreen expression in CD4+ splenocytes of Ai6 mice 24 h after 30 ug CD5/LNP-Cre is 81.1%, the ZsGreen expression in CD8+ splenocytes of Ai6 mice 24 h after 30 ug CD5/LNP-Cre amounted to 75.6%, the percent FAPCAR T cells in spleen 48 h after CD5/LNP-FAPCAR injection is 17.5 to 24.7% and the percent of murine T cells expressing FAPCAR after 48 h in vitro with CD5/LNP-FAPCAR (flow cytometry) came to 83%. This substance showed a percent of murine T cells expressing GFP after 48 h in vitro with CD5/LNP-GFP (flow cytometry) in assay [1] of 78%.
